Results from the DeepSol protein solubility set.

Assay: soluble on expression in E. coli; label from the status in PepcDB or PDB records

| Sequence | soluble on expression in E. coli |
| --- | --- |
| MPDSILEAARGGRTMQKYSEMSKEQLQAVKKELDQQYAEIKAQGLALDMSRGKPSVDQLNISMDMMDVLSSSTDLRCETGVDCRNYGVMDGIPEAKRLLGEISEVDPEHIIIYGNSSLNVMFDTVSRSMTHGVMGNTPWCKLDKVKFLCPVPGYDRHFKITEFFGIEMINVPMSPEGPDMDMVEKLVSEDPAIKGIWCVPKYSNPQGYTYSEETVKRFANLKPAAPDFRIYWDNAYSVHHLYDDEKDQDFLLEILDECAKAGNPDMVYKFTSTSKISFPGSGIAALAASKANLDDIRKYITVQTIGHDKLNQLRHVKFFKDLEGVHAHMRKHAAILRPKFEMVEATLEKELGGLGIGEWTTPKGGYFISFESLDGCAKKIVAMAKEAGVVMTGAGATYPYGKDPKDSNIRIAPSFPPIEELEKAAQVFVVCVKLASVEKLLAE | not soluble |
| MPDSLKSSIGYSRRFRLFRRGEVTVLEVMAGQKAYPDTLRYLLVPEGRPQPSGFVGYTVIRTPVKRIAVFSTTHIGFLDMLGRSDGIIGVSRPEFVNTPAVRSRIRSGAIKAIGMPFSPDVEALLNLEPDLVIAPALPAARKTDYQALVQAGIPVLVVAEWLEPSPLGRAEWIKLFGALVGKEKLARERFAAIESSYLKIAALSRNLPNRPTVLTGLPVKDAWYVPTGGSYVAAMLRDAGASYHWRDLPGTGSVPLTIEAVWPVALEAEYWLNTGTVSTLDELLAVDSRFGQMRSVRERRVWNNNRLVNAAGGNAYWESGVVRPDLILKDLVMILHPGLLRAHGIGEGELTFFQEVKLEHHHHHH | not soluble |
| MPDTSPDLPAMSPLAVYRQAVEQRGFAPDEAQRRAAEALERCFQALHEAHRHGAIQGVYLWGPVGRGKTWLMDHFYQCLRVPARRQHFHHFMQWVHQRQFELTGTADPLRALARELARDVRVLCFDELFVSDIGDAILLGSLLRIMFEEGVVLVATSNQPPEQLYADGFNRERFLPAIEAIQRHMAVVAVDGGQDHRLHPGRAEQRYWVVEAGQASGFAELFARLSAGEAASTQPIELGHRPLAVHRHSESVLWCSYAQLCEAPLSALDFIGLCDRYRAILMDDLPCLSASQREGRIARGTEDGAQLVEAGDRELPQLSVHDDGVRRFIALVDECYDRKVPLYLEARVPLEALYTEGYLAFAFRRTLSRLREMQLARFGSDSAG | not soluble |
| MPEAWIVEAVRTPIGKHGGALASVRPDDLLAHALSVLVDRSGVPKEEVEDVYAGCANQAGEDNRNVARMALLLAGFPVEVAGCTVNRLCGSGLEAVAQAARAIWAGEGKVYIGSGVESMSRAPYAVPKPERGFPTGNLVMYDTTLGWRFVNPKMQALYGTESMGETAENLAEMYGIRREEQDRFALLSHQKAVRAWEEGRFQDEVVPVPVKRGKEEILVEQDEGPRRDTSLEKLAALRPVFREGGTVTAGNSSPLNDGAAAVLLVSDDYAKAHGLRPLARVRAIAVAGVPPRIMGIGPVPATRKALERAGLSFSDLGLIELNEAFAAQALAVLREWSLSMEDQRLNPNGGAIALGHPLGASGARILTTLVHEMRRRKVQFGLATMCIGVGQGIAVVVEGMG | soluble |
| MPEGPAAVLAPRRKTRQLQVGTVGVGSDFPVSVQSMCTTKTHDVNATLQQIAELTASGCDIVRVACPRQEDADALATIAKKSQIPVIADIHFQPRYIFAAIEAGCAAVRVNPGNIKEFDGRVKEVAKAAGDAGIPIRIGVNAGSLDPRLMQKYGKATPEALVESALWEAGLFEEHGFGDIKISVKHNDPVIMVEAYRQLAAQCNYPLHLGVTEAGPAFQGTIKSAVAFGALLADGIGDTIRVSLSAPPAEEIKVGTQILQSLNLRPRKLEIVSCPSCGRAQVDVYTLADEVTAGLEGMEIPLRVAVMGCVVNGPGEAREADLGVASGNGKGQIFVKGKVIKTVPEAQIVETLIEEAMRIAEEMEGDATSGSPVVTVS | not soluble |
| MPEITLNCQKLPCPQPVLRCKALLDTEAPARCTVTVDNAPASENVARFLTSRGYDTSVHADPEGLWNIIAVRKDSAVAPSCDCEVMDARGIAAIAGTAEMPQKVTVFITSETLGSGDDVLGGKLMANFLATLPELGDELWRIVCVNGGVRLATREHPAVTHLNKLEAMGVDILVCGTCLDHFGLLSEKAVGQTTNMLDVVTSLQLATKVIRPLEHHHHHH | soluble |
| MPEITVLMPVRNGERYIKESIDSVLNQTLTDFEFLIIDDGSTDRTVEIIQGYTDKRIRLVRKEHQFIQNLNEGLELASGSYIARMDADDIMHTERLRIQLKRMKKNPDITVCGTWAKIFSDKGNERNVSHLGYGIIHEPVLELLKYNMLLHPSVMIKKEFLLNHHIEYQNYPCVEDYKLWFDIAKAGGILFVEPQELLMFRRSDTQVTVTKKKEMSLGSIRLRKEILLYLLSIYNNKTLNSLLSDFENLEKNKWMSNEDIFRFFVNLFNRIQRDTMVLEHHHHHH | soluble |
| MPEVHATALIPMLTGTNVPESEEEIDAPIYDQREVEKIRGIAHNIAENAKNPEKLMPDFMAANPGIMSTMESLKLSDFGKTSTVVPSISTSPGPIFTLANGIPAVGTPGTQSSTTVKA | soluble |
| MPFGLKSSQSIDDKFMSITQMKNLIHYVKKNDALSHLCIYILIITGSRFKPVQHLRYEDLNFKKSCIHLNDTKNKYSKRNVKVRIKDLEYIQSVINKHPINQNGYIFHNFINFISYSAINDVLVRFCLKYKYDKYTLKSLRHTHCSYLLAKGISIQYISKRLGHADIHTTLKIYSHLIKEFEDSENSLIEKNLNDLFSDLEHHHHHH | soluble |
| MPGFAIGQTAYVVKTDSYRLLWDCITYLDETTIAKIKELGGLDAIALSHPHYYSTQVEWAETFDVPIYIHEDDKEWVMRPSSRIIYWSGESLQLADGITIHRLGGHFSGGSVLHWEEGNDGKGILLTGDIIQVVADERWVSFMYSYPNLIPLPARKVEEMVNRVKPLQFNRLYNAFHRVVKLEHHHHHH | soluble |
| MPGFNYGGDQDEVYTPYRRVLVTGATGLLGRAVYKEFKNNDWDALGCGYNRARPFFLKCNLLDEDAVRGVIQSFQPHVIVHCAAERRPDVVERHTEAAMNLNVHACATLAKEAGGSFLIYISTDYVFDGRNPPYGENDAPNPLNLYGKSKLEGEREILRHCPGAAVLRVPILFGEVEKVEESAVTVLFERVQEGAESCTIDHCQQRFPTYTNDVARVCRNMAERALQDQSLRGIFHYSAKEQMTKYEMTCAIADAFNLPSSHLIPMTEQPAGAGAQRPQNAQLECSRLELLGLSVESTPFKNAIRDSLWPFQHDKRWRQTVFH | soluble |
| MPGFSALSGGDKRQPEVNIGVVGHVDHGKTTLVQALTGVWTMRHSEEIRRGMTIKLGYADGEVWECEGCGFPERFSPEPVCECDPQASASLRRRVSYVDAPGHEILMATMLSGAALMDGALLVVAANEPCPQPQTKEHLVALEIIGIKNIVIVQNKVDVVSRERAKESYQEILNFIKGTIAEGSPIIPVSALKRANIDAVLAAIEKFIPTPPRDLDKPPVMYISRSFDVNRPGTPPERLVGGVVGGSIIQGVFRVGDEIEISPGVAVRKPGGRVEYVRLHTTITSLRFGSIEVEEARPGGLVAIGTQLDPSVTKADNLVGNVVGKPGELPEPLTTLRIEHHLLEKVVGMKEEARVEPIRRGEMLMLSVGTAITLGVVTRAGKDEIEVQLRRPVVTWPKARVALSRRIMGRWRLIGWGLIK | soluble |
| MPGHELEDVINQRLNLYDVLELPTPLDVHTIYDDLPQIKRKYRTLALKYHPDKHPDNPSIIHKFHLLSTATNILTNADVRPHYDRWLIEFLRKTNDIERNKLIQKLEESESSTIPTTTPHPDLLQIQRHGELLRKLKHFNLPYGDWKHLNTQDQENASQHPYYDCSTLRIVLDNFLQSNNKSNCLSHLRNQVFITLSANEIYDIYFSERNNYSKDDSIIIYTVFDTPITAQHVFRNWSSGNLIPTVKDISPLIPLHYYSDFNLETELNDDIARLVSNEPILLD | not soluble |
| MPHAPQEQIAPLLTTEGWELLASLGPYREADSFSVNAHLRKAGHSPELVAAVLTQSRLRTRAEAKFGEFARQMLFTQAGLEQATRLNVAARHAERFAKAGISHVADLGCGLGADSMAMASMDISVTAVEMDETTAACATINLMPFPHATVVHADATSVELDGMDGVWLDPARRTTSTSGTKRIWDPEAFSPPLSFVERLAATGRAIGVKMGPGIPHDSVPPGCEAQWVSVGGDVTEVTLWFNAVARPGVRRAALVIGNQGAAEITSGADFDGGPVAAVGPVEGFLYEPDGAVIRAGLVADVAGRLGGHLVDEHIAYICAPELHDTPFARAFKVLEVMPYNVKALKAWVKNQGITVLDIKKRGTAVTPEELRKQLLPAKPVKGKDAKTATLVLTRIGEERVAVVVEPVTA | soluble |
